From article PMC3078076

Tests used:
[1] = target: Human HP1β CSD (human); assay: SEC
[2] = target: Human HP1β CSD (human); assay: crystal structure

stoichiometry N [1] | stoichiometry N [2] | stoichiometry N (Sgo1P1 per two HP1β CSD) [1] | stoichiometry N (Sgo1P1 peptide per CSD dimer) [2] | Substance
2 | 2 |  |  | Human HP1β CSD (domain or fragment)
 |  | 1 | 1 | Sgo1P1 (from UniProt Q5FBB7 425-443) (peptide)
